Data set [1] deals with HA-tagged ghrelin receptor F286D (human) (UniProt Q92847).
For data set [2] the following is noted: cited from earlier work. An excerpt:
Food intake is one of the most fundamental processes required for sustaining human life.

Data set [3] concerns ghrelin receptor (WT or mutants). The data set can be described thus: Cell-surface expression assay (FACS). Format: cell-based, human. The protocol:
Cell-surface expression for each mutant was monitored by a fluorescence-activated cell sorting (FACS) assay. In brief, the expressed cells were incubated with mouse anti-HA-FITC antibody (Sigma) at a dilution of 1:200 for 20 min at 4 °C, and then a 9-fold excess of PBS was added to cells. […] The FACS data were analyzed by BD Accuri C6 software 1.0.264.21. The gating strategy and calculation method of expression are shown in Supplementary Fig. 11.
Supplementary Figure 11 | Gating strategy of cell surface expression assay. Circle a gate P1 in the scatter map (black circle). The cells shown in the histogram map are all the cells in the gate P1 in the scatter map. Fluorescence signal intensity (FITC) is presented by […]. With the Blank sample as the reference value of background fluorescence signal (a), the fluorescence signal histogram map is divided into two regions. The left region represents the negative cell community (FITC-), while the right region represents the positive cell community (FITC+). The expression level of cell surface wild-type (WT) ghrelin receptor (b) can be calculated as follows:
(M(FITC+)-M(FITC-))×(FITC+% Parent). M, mean fluorescence intensity. The expression level of the ghrelin receptor mutant is calculated similarly to WT receptor and then is normalized with the WT to calculate the relative expression value. […]

As to “ghrelin (octanoylated at Ser3) (peptide)”, in data set [1], the fold decrease in calcium response of HEK293 cells, activity of ghrelin against the WT receptor was above 250 fold.
Turning to ghrelin, the “growth hormone-releasing activity” value in data set [2] is listed as “potent growth hormone-releasing activity”.

B1: Q3027.32A (protein)
chain: MWNATPSEEPGFNLTLADLDWDASPGNDSLGDELLQLFPAPLLAGVTATCVALFVVGIAGNLLTMLVVSRFRELRTTTNLYLSSMAFSDLLIFLCMPLDLVRLWQYRPWNFGDLLCKLFQFVSESCTYATVLTITALSVERYFAICFPLRAKVVVTKGRVKLVIFVIWAVAFCSAGPIFVLVGVEHENGTDPWDTNECRPTEFAVRSGLLTVMVWVSSIFFFLPVFCLTVLYSLIGRKLWRRRRGDAVVGASLRDQNHKQTVKMLAVVVFAFILCWLPFHVGRYLFSKSFEPGSLEIAQISAYCNLVSFVLFYLSAAINPILYNIMSKKYRVAVFRLLGFEPFSQRKLSTLKDESSRAWTESSINT
modifications: SNAP tag labelled with SNAP-Lumi4-Tb; left off: SNAP, N-terminal, kept
Take B1: the Cell-surface expression came to 99.52% in data set [3] (replicate 1); 91.82% in data set [3] (replicate 2); 87.39% in data set [3] (replicate 3); 99.41% in data set [3] (replicate 4); 85.20% in data set [3] (replicate 5).

B2: F3097.39A (protein)
chain: MWNATPSEEPGFNLTLADLDWDASPGNDSLGDELLQLFPAPLLAGVTATCVALFVVGIAGNLLTMLVVSRFRELRTTTNLYLSSMAFSDLLIFLCMPLDLVRLWQYRPWNFGDLLCKLFQFVSESCTYATVLTITALSVERYFAICFPLRAKVVVTKGRVKLVIFVIWAVAFCSAGPIFVLVGVEHENGTDPWDTNECRPTEFAVRSGLLTVMVWVSSIFFFLPVFCLTVLYSLIGRKLWRRRRGDAVVGASLRDQNHKQTVKMLAVVVFAFILCWLPFHVGRYLFSKSFEPGSLEIAQISQYCNLVSAVLFYLSAAINPILYNIMSKKYRVAVFRLLGFEPFSQRKLSTLKDESSRAWTESSINT
modifications: SNAP tag labelled with SNAP-Lumi4-Tb; left off: SNAP, N-terminal, kept
For B2, the Cell-surface expression in data set [3] (replicate 1) was determined as 77.16%; in data set [3] (replicate 2) it was 85.09%; in data set [3] (replicate 3), 81.26%; in data set [3] (replicate 4), 79.68%; in data set [3] (replicate 5), 76.65%.

B3: A204ECL2E (protein, UniProt Q92847 1-366, looked up, variant A204E)
Growth hormone secretagogue …: MWNATPSEEPGFNLTLADLDWDASPGNDSLGDELLQLFPAPLLAGVTATCVALFVVGIAGNLLTMLVVSRFRELRTTTNLYLSSMAFSDLLIFLCMPLDLVRLWQYRPWNFGDLLCKLFQFVSESCTYATVLTITALSVERYFAICFPLRAKVVVTKGRVKLVIFVIWAVAFCSAGPIFVLVGVEHENGTDPWDTNECRPTEFEVRSGLLTVMVWVSSIFFFLPVFCLTVLYSLIGRKLWRRRRGDAVVGASLRDQNHKQTVKMLAVVVFAFILCWLPFHVGRYLFSKSFEPGSLEIAQISQYCNLVSFVLFYLSAAINPILYNIMSKKYRVAVFRLLGFEPFSQRKLSTLKDESSRAWTESSINT
B3: the Cell-surface expression in data set [3] (replicate 1) is reported as 81.34%; in data set [3] (replicate 2), 81.24%; in data set [3] (replicate 3), 78.97%; in data set [3] (replicate 4), 76.38%; in data set [3] (replicate 5) it was 75.96%.

B4: F3127.42A (protein)
chain: MWNATPSEEPGFNLTLADLDWDASPGNDSLGDELLQLFPAPLLAGVTATCVALFVVGIAGNLLTMLVVSRFRELRTTTNLYLSSMAFSDLLIFLCMPLDLVRLWQYRPWNFGDLLCKLFQFVSESCTYATVLTITALSVERYFAICFPLRAKVVVTKGRVKLVIFVIWAVAFCSAGPIFVLVGVEHENGTDPWDTNECRPTEFAVRSGLLTVMVWVSSIFFFLPVFCLTVLYSLIGRKLWRRRRGDAVVGASLRDQNHKQTVKMLAVVVFAFILCWLPFHVGRYLFSKSFEPGSLEIAQISQYCNLVSFVLAYLSAAINPILYNIMSKKYRVAVFRLLGFEPFSQRKLSTLKDESSRAWTESSINT
modifications: SNAP tag labelled with SNAP-Lumi4-Tb; left off: SNAP, N-terminal, kept
B4: the Cell-surface expression in data set [3] (replicate 1) came to 89.96%; in data set [3] (replicate 2), 82.57%; in data set [3] (replicate 3) it was 78.32%; in data set [3] (replicate 4) it was 82.11%; in data set [3] (replicate 5), 77.05%.

B5: N3057.35A (protein)
chain: MWNATPSEEPGFNLTLADLDWDASPGNDSLGDELLQLFPAPLLAGVTATCVALFVVGIAGNLLTMLVVSRFRELRTTTNLYLSSMAFSDLLIFLCMPLDLVRLWQYRPWNFGDLLCKLFQFVSESCTYATVLTITALSVERYFAICFPLRAKVVVTKGRVKLVIFVIWAVAFCSAGPIFVLVGVEHENGTDPWDTNECRPTEFAVRSGLLTVMVWVSSIFFFLPVFCLTVLYSLIGRKLWRRRRGDAVVGASLRDQNHKQTVKMLAVVVFAFILCWLPFHVGRYLFSKSFEPGSLEIAQISQYCALVSFVLFYLSAAINPILYNIMSKKYRVAVFRLLGFEPFSQRKLSTLKDESSRAWTESSINT
modifications: left off: SNAP, N-terminal, kept
As for B5, the Cell-surface expression is 83.54% in data set [3] (replicate 1); 81.81% in data set [3] (replicate 2); 86.10% in data set [3] (replicate 3); 86.24% in data set [3] (replicate 4); 88.82% in data set [3] (replicate 5).

These data come from PMC8379176 (Nature Communications, 2021).
